One assay deals with T1, hOGA (Homo sapiens, UniProt O60502).
T1 sequence (O60502 1-916): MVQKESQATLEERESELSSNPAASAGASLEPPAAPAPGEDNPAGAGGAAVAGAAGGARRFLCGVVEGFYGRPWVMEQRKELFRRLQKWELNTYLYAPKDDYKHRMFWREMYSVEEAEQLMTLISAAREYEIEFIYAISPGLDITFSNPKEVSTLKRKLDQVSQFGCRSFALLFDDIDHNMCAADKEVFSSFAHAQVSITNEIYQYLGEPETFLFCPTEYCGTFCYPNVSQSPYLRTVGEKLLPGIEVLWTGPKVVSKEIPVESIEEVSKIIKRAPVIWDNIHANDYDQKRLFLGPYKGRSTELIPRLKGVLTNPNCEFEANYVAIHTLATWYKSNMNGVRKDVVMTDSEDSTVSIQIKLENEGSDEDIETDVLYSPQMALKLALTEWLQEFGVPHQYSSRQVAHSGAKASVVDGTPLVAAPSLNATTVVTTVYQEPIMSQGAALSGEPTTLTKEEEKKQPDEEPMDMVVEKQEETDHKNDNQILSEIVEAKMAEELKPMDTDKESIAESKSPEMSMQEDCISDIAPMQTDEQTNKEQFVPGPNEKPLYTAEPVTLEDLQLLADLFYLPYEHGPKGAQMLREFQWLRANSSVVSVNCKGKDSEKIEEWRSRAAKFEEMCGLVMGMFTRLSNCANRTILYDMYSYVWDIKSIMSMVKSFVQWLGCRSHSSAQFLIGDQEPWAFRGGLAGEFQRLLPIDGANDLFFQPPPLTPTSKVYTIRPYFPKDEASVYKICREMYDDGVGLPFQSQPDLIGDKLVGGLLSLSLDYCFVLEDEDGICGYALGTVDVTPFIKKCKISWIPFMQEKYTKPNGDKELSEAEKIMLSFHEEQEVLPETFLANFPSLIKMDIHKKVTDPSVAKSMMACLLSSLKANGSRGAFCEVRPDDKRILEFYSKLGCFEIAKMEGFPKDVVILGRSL
In words: hOGA glycopeptide hydrolysis, substrate competition assay with 4MU-GlcNAc reporter. Format: biochemical. On the set-up: GST (N); made in house; host or cells: transiently transfected HEK293 cells. The settings on record: wild-type full-length hOGA; competition with 4MU-GlcNAc reporter substrate; 37°C, 50 mM citrate-phosphate buffer pH 7.4, 0.1 mg/ml BSA; triplicate; ± error of curve-fit; read-out: Michaelis constant (KM) of glycopeptide substrate for hOGA. How it is done:
Protein was expressed in transiently transfected HEK293 cells and purified via glutathione sepharose affinity chromatography.
hOGA and CpOGA glycopeptide hydrolysis assays were carried out as described previously ([Dorfmueller et al., 2006; Schimpl et al., 2010]) using multisubstrate enzyme kinetics with the fluorigenic pseudosubstrate 4MU-GlcNAc as the reporter substrate. […] Reactions were performed at 37°C in 50 mM citrate-phosphate buffer (pH 7.4) and 0.1 mg/ml BSA. Experiments were performed in triplicate, and data were analyzed and plotted with GraphPad PRISM.

Assay [1] deals with T2, human O-GlcNAcase (hOGA), wild-type (human) (UniProt O60502).
T2 sequence: T1 sequence (O60502 1-916)

In assay [2] the target is T3, human O-GlcNAcase (hOGA) Y69Q (human) (UniProt O60502).
T3 sequence: T1 sequence (O60502 1-916) with Y69Q

The target of assay [3] is T4, human O-GlcNAcase (hOGA) Y69S (human) (UniProt O60502).
T4 sequence: T1 sequence (O60502 1-916) with Y69S

Assay [4] concerns the target T5, human O-GlcNAcase (hOGA) Y69F (human) (UniProt O60502).
T5 sequence: T1 sequence (O60502 1-916) with Y69F

Assay [5] has as its target T6, human O-GlcNAcase (hOGA) Y69K (human) (UniProt O60502).
T6 sequence: T1 sequence (O60502 1-916) with Y69K

Assay [6] addresses T2, human O-GlcNAcase (hOGA), wild-type (human). The source holds these as a separate data set.

Numbering of substitutions follows the chain as printed. *: point of attachment. βGlcNAc = CC(=O)N[C@@H]1[C@@H](O)[C@H](O)[C@@H](CO)O[C@H]1*

Take “QLVVS(O-GlcNAc)TPPPG [altered p53 glycopeptide with intramolecular hydrogen bond disrupted]”: the Michaelis-Menten constant (Km) at hOGA was 1800 µM.
For “QLVVS(O-GlcNAc)VPPPG [altered p53 glycopeptide with intramolecular hydrogen bond disrupted]”, the Michaelis-Menten constant (Km) on hOGA came out at 3700 µM.
In the case of VPHS(O-GlcNAc)SAQ, the Km at hOGA is 810 ± 140 µM.
Regarding “p53 peptide (Ser149) QLVDS(O-GlcNAc)TPPPG, original sequence of Table 2”, in assay [1], the KM (hOGA) of the glycopeptide substrate (substrate competition assay with 4MU-GlcNAc as reporter substrate) was determined as 21 µM.

B1: TAB1 peptide (Ser395) VPYS(O-GlcNAc)SAQ, original sequence (peptide)
peptide: Ac-VPYS(βGlcNAc)SAQ-NH2
SMILES: CC(=O)N[C@H]1[C@H](OC[C@H](NC(=O)[C@H](Cc2ccc(O)cc2)NC(=O)[C@@H]2CCCN2C(=O)[C@@H](NC(C)=O)C(C)C)C(=O)N[C@@H](CO)C(=O)N[C@@H](C)C(=O)N[C@@H](CCC(N)=O)C(N)=O)O[C@H](CO)[C@@H](O)[C@@H]1O
For the molecule B1, the KM (hOGA) of the glycopeptide substrate (substrate competition assay with 4MU-GlcNAc as reporter substrate) in assay [1] is 4100 µM.
The same measure, in the same setting: as for VPHSSAQ [TAB1 peptide (Ser395) VPHS(O-GlcNAc)SAQ, altered sequence], the figure is 810 µM.
As to VAHSGAK [hOGA peptide VAHS(O-GlcNAc)GAK], the KM of the glycopeptide substrate (substrate competition assay with 4MU-GlcNAc as reporter substrate) in assay [2] is over 4000 µM; in assay [3], over 4000 µM; in assay [4], 1200 µM; in assay [5], over 4000 µM.

B2: p53 peptide QLWVDS(O-GlcNAc)TPPPG (peptide)
peptide: Ac-QLWVDS(βGlcNAc)TPPPG-NH2
SMILES: CC(=O)N[C@H]1[C@H](OC[C@H](NC(=O)[C@H](CC(=O)O)NC(=O)[C@@H](NC(=O)[C@H](Cc2c[nH]c3ccccc23)NC(=O)[C@H](CC(C)C)NC(=O)[C@H](CCC(N)=O)NC(C)=O)C(C)C)C(=O)N[C@H](C(=O)N2CCC[C@H]2C(=O)N2CCC[C@H]2C(=O)N2CCC[C@H]2C(=O)NCC(N)=O)[C@@H](C)O)O[C@H](CO)[C@@H](O)[C@@H]1O
As to B2, the KM of the glycopeptide substrate (substrate competition assay with 4MU-GlcNAc as reporter substrate) in assay [6] was 21 µM.
